{"source": "paper PMC2667185", "biological_target": "Mus musculus XRCC2 full length (Mus musculus) (UniProt Q9CX47)", "sequence (Q9CX47 whole entry, the tested form may be a part, canonical isoform)": "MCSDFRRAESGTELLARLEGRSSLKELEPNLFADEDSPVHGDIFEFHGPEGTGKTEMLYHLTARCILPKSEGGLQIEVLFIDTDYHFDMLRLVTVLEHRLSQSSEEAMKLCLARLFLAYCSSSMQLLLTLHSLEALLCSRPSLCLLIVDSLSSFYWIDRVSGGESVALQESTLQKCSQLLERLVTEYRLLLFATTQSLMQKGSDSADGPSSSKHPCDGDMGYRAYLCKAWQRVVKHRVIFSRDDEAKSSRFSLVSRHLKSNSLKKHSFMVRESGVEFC", "experiment": "two-hybrid; same mated yeast; liquid β-galactosidase assay with ONPG as substrate, in triplicate, constructs in both the GAL4 activating and DNA binding domains", "data": [{"substance": "Mus musculus RAD51DΔ8 (splice variant product, exon 8 excluded) (from UniProt O55230 4-223) (natural protein)", "values": [{"measurement": "percent of the level of full-length RAD51D (β-galactosidase activity)", "value": 36, "unit": "%"}]}]}
